Experimental data from US20120172295A1 (INDIANA UNIVERSITY RESEARCH AND TECHNOLOGY, published 2012).
Where two headings read alike, the source gives them in different places. Starred links: 1 amine or outer side, 2 acyl side, 3 side chain; linkers in the order of their positions; H or OH if unused. Non-standard residues stand in square brackets, D forms with d. Groups on a side chain read outwards from the residue. No end group written: not given here. *: point of attachment. Dab(Ac) = acetyldiaminobutanoic acid, CC(=O)NCC[C@H](N[*:1])C(=O)[*:2]; C(Acm) = acetamidomethyl-cysteine, CC(=O)NCSC[C@H](N[*:1])C(=O)[*:2]; Orn(Ac) = acetylornithine, CC(=O)NCCC[C@H](N[*:1])C(=O)[*:2]; γGlu = O=C(O)[C@H](CCC(=O)[*:2])N[*:1]; Dap(CONH2) = NC(=O)NC[C@H](N)C(=O)O; Stearoyl = CCCCCCCCCCCCCCCCCC(=O)*; Palmitoyl = CCCCCCCCCCCCCCCC(=O)*; Met(O) = CS(=O)CC[C@H](N)C(=O)O; Myristoyl = CCCCCCCCCCCCCC(=O)*; Nle = CCCC[C@H](N)C(=O)O; Dab = NCC[C@H](N)C(=O)O; Aib = CC(C)(N)C(=O)O; Ahx = NCCCCCC(=O)O; βAla = NCCC(=O)O

Columns and labels:
Assay in all cases: cell-based or functional assay
glucagon receptor [1] = target: T1, glucagon receptor (UniProt P47871 26-477, limits assumed)
T1 sequence (P47871 26-477 limits assumed): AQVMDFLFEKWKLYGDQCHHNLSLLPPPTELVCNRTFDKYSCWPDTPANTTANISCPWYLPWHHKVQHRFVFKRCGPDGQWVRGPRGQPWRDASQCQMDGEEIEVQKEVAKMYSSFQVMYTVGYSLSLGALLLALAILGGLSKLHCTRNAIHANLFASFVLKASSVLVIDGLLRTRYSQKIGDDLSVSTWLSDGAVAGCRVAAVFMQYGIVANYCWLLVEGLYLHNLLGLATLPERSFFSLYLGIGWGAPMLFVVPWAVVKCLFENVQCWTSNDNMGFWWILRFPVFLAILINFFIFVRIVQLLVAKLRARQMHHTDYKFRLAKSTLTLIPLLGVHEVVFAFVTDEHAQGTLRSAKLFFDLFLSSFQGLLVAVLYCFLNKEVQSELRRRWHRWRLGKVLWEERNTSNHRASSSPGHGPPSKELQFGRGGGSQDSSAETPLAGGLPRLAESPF

GLP-1 receptor [2] = target: T2, GLP-1 receptor (UniProt P43220 24-463, limits assumed)
glucagon receptor [3] = target: T1, glucagon receptor; remark: listed apart in the source
glucagon receptor [4] = target: T1, glucagon receptor; remark: listed apart in the source
GLP-1 receptor [5] = target: T2, GLP-1 receptor; remark: listed apart in the source
GLP-1 receptor [6] = target: T2, GLP-1 receptor; remark: listed apart in the source

B1: Peptide 78* (SEQ ID NO: 571) (peptide)
peptide: H[Aib]QGTFTSDK([γGlu-γGlu-Myristoyl])SKYLD[Aib]RRAQDFVC(PEG 40 kDa)WLMNT-NH2
EC50 (glucagon receptor [1]): 0.319 nM | EC50 (GLP-1 receptor [2]): 0.103 nM

B2: Peptide 82 (SEQ ID NO: 564) (peptide)
peptide: H[Aib]QGTFTSDK([Ala-Ala-Palmitoyl])SKYLD[Aib]RRAQDFVQWLMNT-NH2
EC50 (glucagon receptor [1]): 0.024 nM | EC50 (GLP-1 receptor [2]): 0.108 nM

B3: Peptide 81* (SEQ ID NO: 573) (peptide)
peptide: H[Aib]QGTFTSDK([Ala-Ala-Myristoyl])SKYLD[Aib]RRAQDFVC(PEG 40 kDa)WLMNT-NH2
EC50 (glucagon receptor [1]): 0.597 nM | EC50 (GLP-1 receptor [2]): 0.271 nM

B4: Peptide J backbone, Orn(Ac) at position 3 (SEQ ID NO: 599) (peptide)
peptide: HS[Orn(Ac)]GTFTSDYSKYLDTRRAAEFVAWL[Nle]DE
% activity (glucagon receptor [3]): 7% | EC50 (glucagon receptor [3]): 0.92 nM

B5: dS2, E16/K20, K10(C18) Gluc Amide (peptide)
peptide: HXQGTFTSDKSKYLDERRAKDFVQWLMNT
modifications: d-Ser at 2; Lys 10-C18 acyl; C-terminal amide
% Activity of Glucagon (glucagon receptor [4]): 196% | % Activity of GLP-1 (GLP-1 receptor [5]): 60% | EC50 (GLP-1 receptor [5]): 0.025 nM

B6: Peptide 85 (SEQ ID NO: 567) (peptide)
peptide: H[Aib]QGTFTSDK([Ahx-Palmitoyl])SKYLD[Aib]RRAQDFVQWLMNT-NH2
EC50 (glucagon receptor [1]): 0.01 nM | EC50 (GLP-1 receptor [2]): 0.005 nM

B7: dS2, E16/K20, K10(C16) Gluc Amide (peptide)
peptide: HXQGTFTSDKSKYLDERRAKDFVQWLMNT
modifications: d-Ser at 2; Lys 10-C16 acyl; C-terminal amide
% Activity of Glucagon (glucagon receptor [4]): 44.7% | EC50 (glucagon receptor [4]): 0.076 nM | % Activity of GLP-1 (GLP-1 receptor [5]): 19.5% | EC50 (GLP-1 receptor [5]): 0.041 nM

B8: Peptide 83 (SEQ ID NO: 565) (peptide)
peptide: H[Aib]QGTFTSDK([γGlu-γGlu-Palmitoyl])SKYLD[Aib]RRAQDFVQWLMNT-NH2
modifications: N-terminus assumed
SMILES: CCCCCCCCCCCCCCCC(=O)N[C@@H](CCC(=O)N[C@@H](CCC(=O)NCCCC[C@H](NC(=O)[C@H](CC(=O)O)NC(=O)[C@H](CO)NC(=O)[C@@H](NC(=O)[C@H](Cc1ccccc1)NC(=O)[C@@H](NC(=O)CNC(=O)[C@H](CCC(N)=O)NC(=O)C(C)(C)NC(=O)[C@@H](N)Cc1c[nH]cn1)[C@@H](C)O)[C@@H](C)O)C(=O)N[C@@H](CO)C(=O)N[C@@H](CCCCN)C(=O)N[C@@H](Cc1ccc(O)cc1)C(=O)N[C@@H](CC(C)C)C(=O)N[C@@H](CC(=O)O)C(=O)NC(C)(C)C(=O)N[C@@H](CCCNC(=N)N)C(=O)N[C@@H](CCCNC(=N)N)C(=O)N[C@@H](C)C(=O)N[C@@H](CCC(N)=O)C(=O)N[C@@H](CC(=O)O)C(=O)N[C@@H](Cc1ccccc1)C(=O)N[C@H](C(=O)N[C@@H](CCC(N)=O)C(=O)N[C@@H](Cc1c[nH]c2ccccc12)C(=O)N[C@@H](CC(C)C)C(=O)N[C@@H](CCSC)C(=O)N[C@@H](CC(N)=O)C(=O)N[C@H](C(N)=O)[C@@H](C)O)C(C)C)C(=O)O)C(=O)O
EC50 (GLP-1 receptor [2]): 0.043 nM

B9: E16K20-MDGG30 PSSGAPPPS (SEQ ID NO: 526) (peptide)
peptide: HSQGTFTSDYSKYLDERRAKDFVQWLMDGGPSSGAPPPS-NH2
EC50 (GLP-1 receptor [6]): 0.02 nM

B10: Peptide K backbone, Q at position 3 (SEQ ID NO: 600) (peptide)
peptide: HSQGTFTSDYSKYLD[Aib]RRAADFVAWLMDE
% activity (glucagon receptor [3]): 15%

B11: dS2, E16/K20, K10(C14) Gluc Amide (peptide)
peptide: HXQGTFTSDKSKYLDERRAKDFVQWLMNT
modifications: d-Ser at 2; Lys 10-C14 acyl; C-terminal amide
% Activity of Glucagon (glucagon receptor [4]): 21.9% | EC50 (glucagon receptor [4]): 0.155 nM | % Activity of GLP-1 (GLP-1 receptor [5]): 6.3% | EC50 (GLP-1 receptor [5]): 0.128 nM

B12: Peptide J backbone, C(Acm) at position 3 (SEQ ID NO: 594) (peptide)
peptide: HS[C(Acm)]GTFTSDYSKYLDTRRAAEFVAWL[Nle]DE
% activity (glucagon receptor [3]): 33% | EC50 (glucagon receptor [3]): 0.18 nM

B13: Peptide J backbone, Dap(urea) at position 3 (SEQ ID NO: 596) (peptide)
peptide: HS[Dap(CONH2)]GTFTSDYSKYLDTRRAAEFVAWL[Nle]DE
% activity (glucagon receptor [3]): 13% | EC50 (glucagon receptor [3]): 0.48 nM

B14: MNGG30 PSSGAPPPS (SEQ ID NO: 522) (peptide)
peptide: HSQGTFTSDYSKYLDSRRAQDFVQWLMNGGPSSGAPPPS-NH2
EC50 (GLP-1 receptor [6]): 0.31 nM | Relative Potency (%) (GLP-1 receptor [6]): 8%

B15: Peptide J backbone, Dab(Ac) at position 3 (SEQ ID NO: 595) (peptide)
peptide: HS[Dab(Ac)]GTFTSDYSKYLDTRRAAEFVAWL[Nle]DE
% activity (glucagon receptor [3]): 19% | EC50 (glucagon receptor [3]): 0.31 nM

B16: Peptide J backbone, Q at position 3 (SEQ ID NO: 593) (peptide)
peptide: HSQGTFTSDYSKYLDTRRAAEFVAWL[Nle]DE
% activity (glucagon receptor [3]): 25%

B17: GLP-1-VKGG30 (SEQ ID NO: 527) (peptide)
peptide: HAEGTFTSDVSSYLEGQAAKEFIAWLVKGG-NH2
EC50 (GLP-1 receptor [6]): 0.025 nM | Relative Potency (%) (GLP-1 receptor [6]): 100%

B18: Peptide 86 (SEQ ID NO: 568) (peptide)
peptide: H[Aib]QGTFTSDK([Leu-Leu-Palmitoyl])SKYLD[Aib]RRAQDFVQWLMNT-NH2
EC50 (GLP-1 receptor [2]): 0.006 nM

B19: Peptide 87 (SEQ ID NO: 569) (peptide)
peptide: H[Aib]QGTFTSDK([Pro-Pro-Palmitoyl])SKYLD[Aib]RRAQDFVQWLMNT-NH2
EC50 (glucagon receptor [1]): 0.017 nM | EC50 (GLP-1 receptor [2]): 0.009 nM

B20: Peptide 77* (SEQ ID NO: 570) (peptide)
peptide: H[Aib]QGTFTSDK(Myristoyl)SKYLD[Aib]RRAQDFVC(PEG 40 kDa)WLMNT-NH2
EC50 (glucagon receptor [1]): 21.9 nM | EC50 (GLP-1 receptor [2]): 1.46 nM

B21: Peptide K backbone, Dab(Ac) at position 3 (SEQ ID NO: 601) (peptide)
peptide: HS[Dab](Ac)GTFTSDYSKYLD[Aib]RRAADFVAWLMDE
% activity (glucagon receptor [3]): 86% | EC50 (glucagon receptor [3]): 0.07 nM

B22: AIB2, AIB16, K10(C18) Gluc Amide (peptide)
peptide: H[Aib]QGTFTSDK(Stearoyl)SKYLD[Aib]RRAQDFVQWLMNT-NH2
modifications: N-terminus assumed
SMILES: CCCCCCCCCCCCCCCCCC(=O)NCCCC[C@H](NC(=O)[C@H](CC(=O)O)NC(=O)[C@H](CO)NC(=O)[C@@H](NC(=O)[C@H](Cc1ccccc1)NC(=O)[C@@H](NC(=O)CNC(=O)[C@H](CCC(N)=O)NC(=O)C(C)(C)NC(=O)[C@@H](N)Cc1c[nH]cn1)[C@@H](C)O)[C@@H](C)O)C(=O)N[C@@H](CO)C(=O)N[C@@H](CCCCN)C(=O)N[C@@H](Cc1ccc(O)cc1)C(=O)N[C@@H](CC(C)C)C(=O)N[C@@H](CC(=O)O)C(=O)NC(C)(C)C(=O)N[C@@H](CCCNC(=N)N)C(=O)N[C@@H](CCCNC(=N)N)C(=O)N[C@@H](C)C(=O)N[C@@H](CCC(N)=O)C(=O)N[C@@H](CC(=O)O)C(=O)N[C@@H](Cc1ccccc1)C(=O)N[C@H](C(=O)N[C@@H](CCC(N)=O)C(=O)N[C@@H](Cc1c[nH]c2ccccc12)C(=O)N[C@@H](CC(C)C)C(=O)N[C@@H](CCSC)C(=O)N[C@@H](CC(N)=O)C(=O)N[C@H](C(N)=O)[C@@H](C)O)C(C)C
% Activity of Glucagon (glucagon receptor [4]): 212% | EC50 (glucagon receptor [4]): 0.016 nM | % Activity of GLP-1 (GLP-1 receptor [5]): 88.9% | EC50 (GLP-1 receptor [5]): 0.009 nM

B23: Peptide 79* (SEQ ID NO: 575) (peptide)
peptide: H[Aib]QGTFTSDK([Ala-Ala-Palmitoyl])SKYLD[Aib]RRAQDFVC(PEG 40 kDa)WLMNT-NH2
EC50 (glucagon receptor [1]): 0.102 nM

B24: Peptide 26 (SEQ ID NO: 637) (peptide)
peptide: H[Aib]QGTFTSDYSKYLD[Aib]RRAQDFVQWLMNT-NH2
modifications: N-terminus assumed
SMILES: CSCC[C@H](NC(=O)[C@H](CC(C)C)NC(=O)[C@H](Cc1c[nH]c2ccccc12)NC(=O)[C@H](CCC(N)=O)NC(=O)[C@@H](NC(=O)[C@H](Cc1ccccc1)NC(=O)[C@H](CC(=O)O)NC(=O)[C@H](CCC(N)=O)NC(=O)[C@H](C)NC(=O)[C@H](CCCNC(=N)N)NC(=O)[C@H](CCCNC(=N)N)NC(=O)C(C)(C)NC(=O)[C@H](CC(=O)O)NC(=O)[C@H](CC(C)C)NC(=O)[C@H](Cc1ccc(O)cc1)NC(=O)[C@H](CCCCN)NC(=O)[C@H](CO)NC(=O)[C@H](Cc1ccc(O)cc1)NC(=O)[C@H](CC(=O)O)NC(=O)[C@H](CO)NC(=O)[C@@H](NC(=O)[C@H](Cc1ccccc1)NC(=O)[C@@H](NC(=O)CNC(=O)[C@H](CCC(N)=O)NC(=O)C(C)(C)NC(=O)[C@@H](N)Cc1c[nH]cn1)[C@@H](C)O)[C@@H](C)O)C(C)C)C(=O)N[C@@H](CC(N)=O)C(=O)N[C@H](C(N)=O)[C@@H](C)O
EC50 (glucagon receptor [1]): 0.653 nM | EC50 (GLP-1 receptor [2]): 0.475 nM

B25: Peptide 84 (SEQ ID NO: 566) (peptide)
peptide: H[Aib]QGTFTSDK([βAla-βAla-Palmitoyl])SKYLD[Aib]RRAQDFVQWLMNT-NH2
EC50 (GLP-1 receptor [2]): 0.004 nM

B26: Peptide J backbone, M(O) at position 3 (SEQ ID NO: 598) (peptide)
peptide: HS[Met(O)]GTFTSDYSKYLDTRRAAEFVAWL[Nle]DE
% activity (glucagon receptor [3]): 7% | EC50 (glucagon receptor [3]): 0.91 nM

B27: Peptide 80* (SEQ ID NO: 576) (peptide)
peptide: H[Aib]QGTFTSDK([γGlu-γGlu-Palmitoyl])SKYLD[Aib]RRAQDFVC(PEG 40 kDa)WLMNT-NH2
EC50 (glucagon receptor [1]): 0.108 nM
